Data as given in publication PMC5586252, “PP2A-B′ holoenzyme substrate recognition, regulation and role in cytokinesis” (Cell Discovery, 2017).

Molecular target: GST-tagged B′γ1 regulatory subunit (UniProt Q13362)
Assay: pull-down; 10 μg GST-tagged B′γ1 immobilised; titrated concentrations of phosphorylated or non-phosphorylated Cyk4 (1–177)

## pCyk4 (1–177), Plk1-phosphorylated (from UniProt Q9H0H5 1-177) (domain or fragment)
  concentration at half maximum binding: 2.5 to 5 µM
  lowest concentration at which the interaction is detected: 0.6 µM
